Substitutions are numbered along the chain they refer to. Names may count otherwise.
T1: Human TROP2 Full length (human, UniProt P09758 31-323)
T1 sequence: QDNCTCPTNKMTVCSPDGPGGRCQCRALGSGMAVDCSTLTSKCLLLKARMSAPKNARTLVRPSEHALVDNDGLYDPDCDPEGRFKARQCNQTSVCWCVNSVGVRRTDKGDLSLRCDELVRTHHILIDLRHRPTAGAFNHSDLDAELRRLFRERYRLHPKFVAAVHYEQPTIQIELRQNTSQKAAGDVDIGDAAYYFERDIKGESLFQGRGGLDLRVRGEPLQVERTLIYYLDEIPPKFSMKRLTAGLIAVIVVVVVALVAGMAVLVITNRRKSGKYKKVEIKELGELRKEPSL

T2: Cyno TROP2 Full length (cynomolgus monkey, UniProt P09758 31-323 (human entry))
T2 chain: T1 sequence with M32V, S63N, I200V, M262V, T268S

T3: Human TROP2 ECD (31-274 AA), biotinylated (human, UniProt P09758 31-274, biotinylated (site not stated))
T3 construct: also called tumor-associated calcium signal transducer 2; Human TROP2-biotin
T3 sequence: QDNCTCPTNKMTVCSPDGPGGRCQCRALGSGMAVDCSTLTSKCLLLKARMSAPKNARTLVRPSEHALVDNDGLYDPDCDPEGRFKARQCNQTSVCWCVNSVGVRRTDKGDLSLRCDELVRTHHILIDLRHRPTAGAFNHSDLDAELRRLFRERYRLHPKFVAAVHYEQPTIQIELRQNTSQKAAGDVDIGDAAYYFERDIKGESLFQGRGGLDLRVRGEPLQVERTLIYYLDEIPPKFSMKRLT

B1: PC-31 (bispecific antibody)
light: GGVDFCGLYHWPICYQGGGGSGGLSGRSDAGSPLGLAGSGGSDIQLTQSPSSLSASVGDRVSITCKASQDVSIAVAWYQQKPGKAPKLLIYSASYRYTGVPDRFSGSGSGTDFTLTISSLQPEDFAVYYCQQHYITPLTFGAGTKVEIKRTVAAPSVFIFPPSDEQLKSGTASVVCLLNNFYPREAKVQWKVDNALQSGNSQESVTEQDSKDSTYSLSSTLTLSKADYEKHKVYACEVTHQGLSSPVTKSFNRGEC
heavy: not shown
B2: PC-32 (bispecific antibody)
light: B1 light
heavy: not shown
B3: PC-47 (bispecific antibody)
light: GGVDFCGLYHWPICYQGGGGSGGGGGSGGGGSGGASSGAGGSDIQLTQSPSSLSASVGDRVSITCKASQDVSIAVAWYQQKPGKAPKLLIYSASYRYTGVPDRFSGSGSGTDFTLTISSLQPEDFAVYYCQQHYITPLTFGAGTKVEIKRTVAAPSVFIFPPSDEQLKSGTASVVCLLNNFYPREAKVQWKVDNALQSGNSQESVTEQDSKDSTYSLSSTLTLSKADYEKHKVYACEVTHQGLSSPVTKSFNRGEC
heavy: not shown
B4: PC-13 (bispecific antibody)
light: not shown
heavy: GGVDFCGLYHWPICYQGGGGSGGLSGRSDAGSPLGLAGSGGSQVQLQQSGSELKKPGASVKVSCKASGYTFTNYGMNWVKQAPGQGLKWMGWINTYTGEPTYTDDFKGRFAFSLDTSVSTAYLQISSLKADDTAVYFCAAGGFGSSYWYFDVWGQGSLVTVSSASTKGPSVFPLAPSSKSTSGGTAALGCLVKDYFPEPVTVSWNSGALTSGVHTFPAVLQSSGLYSLSSVVTVPSSSLGTQTYICNVNHKPSNTKVDKKVEPKSC
notes: anti-TROP2 R98A
B5: TCE-4 (bispecific antibody)
light: not shown
heavy: QVQLQQSGSELKKPGASVKVSCKASGYTFTNYGMNWVKQAPGQGLKWMGWINTYTGEPTYTDDFKGRFAFSLDTSVSTAYLQISSLKADDTAVYFCARGGFGSSYWYADVWGQGSLVTVSSASTKGPSVFPLAPSSKSTSGGTAALGCLVKDYFPEPVTVSWNSGALTSGVHTFPAVLQSSGLYSLSSVVTVPSSSLGTQTYICNVNHKPSNTKVDKKVEPKSC
B6: PC-19 (bispecific antibody)
light: not shown
heavy: B4 heavy with G7A, A140R, F150A
notes: anti-TROP2 F108A
B7: PC-23 (bispecific antibody)
light: not shown
heavy: B4 heavy with G17V
notes: anti-TROP2 R98A
B8: TBD-11 (anti-TROP2 Fab, HC R98A) (Fab, V domains shown)
VH: QVQLQQSGSELKKPGASVKVSCKASGYTFTNYGMNWVKQAPGQGLKWMGWINTYTGEPTYTDDFKGRFAFSLDTSVSTAYLQISSLKADDTAVYFCAAGGFGSSYWYFDVWGQGSLVTVSS
VL: DIQLTQSPSSLSASVGDRVSITCKASQDVSIAVAWYQQKPGKAPKLLIYSASYRYTGVPDRFSGSGSGTDFTLTISSLQPEDFAVYYCQQHYITPLTFGAGTKVEIKR
notes: also called TBD-11 (HC R98A mutant)
B9: TBD-14 (anti-TROP2 Fab, HC F101A) (Fab, V domains shown)
VH: B8 VH with A98R, F101A
VL: B8 VL
B10: TBD-12 (anti-TROP2 Fab, HC G99A) (Fab, V domains shown)
VH: B8 VH with A98R, G99A
VL: B8 VL
B11: TBD-15 (anti-TROP2 Fab, HC G102A) (Fab, V domains shown)
VH: B8 VH with A98R, G102A
VL: B8 VL
B12: TBD-16 (anti-TROP2 Fab, HC S103A) (Fab, V domains shown)
VH: B8 VH with A98R, S103A
VL: B8 VL
B13: TBD-17 (anti-TROP2 Fab, HC S104A) (Fab, V domains shown)
VH: B8 VH with A98R, S104A
VL: B8 VL
notes: also called TBD-17 (HC S104A mutant)
B14: TBD-22 (anti-TROP2 Fab, HC D109A) (Fab, V domains shown)
VH: B8 VH with A98R, D109A
VL: B8 VL
notes: also called TBD-22 (HC D109A mutant)
B15: TBD-20 (anti-TROP2 Fab, HC Y107A) (Fab, V domains shown)
VH: B8 VH with A98R, Y107A
VL: B8 VL
B16: TBD-21 (anti-TROP2 Fab, HC F108A) (Fab, V domains shown)
VH: B8 VH with A98R, F108A
VL: B8 VL
notes: also called TBD-21 (HC F108A mutant)
B17: TBD-23 (anti-TROP2 Fab, HC V110A) (Fab, V domains shown)
VH: B8 VH with A98R, V110A
VL: B8 VL

Target: T1, Human TROP2 Full length
Test: cell-based or functional assay

| Binder | H292 Cytotoxicity EC50 (pM) |
| --- | --- |
| B1 | > 100000 pM |
| B2 | 28100 pM |
| B3 | > 100000 pM |

Target: T2, Cyno TROP2 Full length
Test: cell-based or functional assay

| CyTROP2 HEK293 EC50 (pM) | Binder |
| --- | --- |
| > 100000 pM | B1 |
| 35900 pM | B2 |
| 17300 pM | B3 |

Target: T3, Human TROP2 ECD (31-274 AA), …
Test: ELISA on immobilized TROP2

| EC50 | Binder |
| --- | --- |
| 419 nM | B4 |
| 7.29 nM | B5 |

Target: T3, Human TROP2 ECD (31-274 AA), …
Test: ELISA on immobilized TROP2
Remark: another data set of the same source

| EC50 | Binder |
| --- | --- |
| > 1000 nM | B4 |
| > 1000 nM | B6 |
| > 1000 nM | B7 |
| 2.5 nM | B5 |

Target: T3, Human TROP2 ECD (31-274 AA), …
Test: ELISA, ratio of EC50 to that of TBD-1 wt

| Fold shift in EC50 relative to wt | Binder |
| --- | --- |
| 19 fold | B8 |
| 193 fold | B9 |
| 1 fold | B10 |
| 361 fold | B11 |
| 1 fold | B12 |

Target: T3, Human TROP2 ECD (31-274 AA), …
Test: ELISA, ratio of EC50 to that of TBD-1 wt
Remark: another data set of the same source

| Fold shift in EC50 relative to wt | Binder |
| --- | --- |
| 2 fold | B13 |
| 5.5 fold | B14 |
| 262 fold | B15 |
| 20.5 fold | B16 |
| 1 fold | B17 |

Target: T3, Human TROP2 ECD (31-274 AA), …
Test: ELISA, biotinylated TROP2 ECD on neutravidin plate, Fab titrated

| EC50 | Binder |
| --- | --- |
| 3.8 nM | B8 |
| 38.6 nM | B9 |
| 0.2 nM | B10 |
| 72.2 nM | B11 |
| 0.2 nM | B12 |

Target: T3, Human TROP2 ECD (31-274 AA), …
Test: as above
Remark: another data set of the same source

| EC50 | Binder |
| --- | --- |
| 0.4 nM | B13 |
| 1.1 nM | B14 |
| 52.3 nM | B15 |
| 4.1 nM | B16 |
| 0.2 nM | B17 |

Target: T3, Human TROP2 ECD (31-274 AA), …
Test: BLI (Octet), dissociation half-life from biotinylated human TROP2 ECD

| t1/2 | Binder |
| --- | --- |
| 10 min | B8 |
| 4 min | B9 |
| 39 min | B10 |
| 1 min | B11 |
| 103 min | B12 |

Target: T3, Human TROP2 ECD (31-274 AA), …
Test: as above
Remark: another data set of the same source

| t1/2 | Binder |
| --- | --- |
| 24 min | B13 |
| 33 min | B14 |
| 10 min | B15 |
| 8 min | B16 |
| 34 min | B17 |

Target: T3, Human TROP2 ECD (31-274 AA), …
Test: BLI (Octet), biotinylated human TROP2 ECD on SAX sensor, Fab 6.25-50 nM

| Kd | Binder |
| --- | --- |
| 3.88 nM | B8 |
| 18.7 nM | B9 |
| 0.492 nM | B10 |
| 5.71 nM | B11 |
| 0.211 nM | B12 |

Target: T3, Human TROP2 ECD (31-274 AA), …
Test: as above
Remark: another data set of the same source

| Kd | Binder |
| --- | --- |
| 0.9 nM | B13 |
| 2.35 nM | B14 |
| 6.34 nM | B15 |
| 4.76 nM | B16 |
| 0.401 nM | B17 |

Target: T3, Human TROP2 ECD (31-274 AA), …
Test: ELISA: biotinylated TROP2 captured on neutravidin plate, Fab titrated, HRP secondary antibody

| EC50 | Binder |
| --- | --- |
| 3.8 nM | B8 |
| 0.2 nM | B10 |

Target: T3, Human TROP2 ECD (31-274 AA), …
Test: as above
Remark: another data set of the same source

| EC50 | Binder |
| --- | --- |
| 38.6 nM | B9 |
| 0.432 nM | B13 |
| 72.2 nM | B11 |
| 1.1 nM | B14 |
| 0.177 nM | B12 |
| 52.2 nM | B15 |
| 4.11 nM | B16 |
| 0.236 nM | B17 |

— patent US20230357429A1 (JANUX THERAPEUTICS, published 2023)
